Laboratory results from patent publication US20260265789A1, “METHOD FOR IMPROVING 2, 4 DIHYDROXYBUTYRIC ACID PRODUCTION AND YIELD” (ADISSEO FRANCE S.A.S, priority 2023, published 2026).

Key:
yagE = test: Transcriptomic analysis during DHB fermentation: aldolase gene expression; type: cell-based, Escherichia coli; settings: in presence of significant amount of DHB
garL = test: as above; type: cell-based, Escherichia coli; settings: in presence of significant amount of DHB
yfaU = test: as above; type: cell-based, Escherichia coli; settings: in presence of significant amount of DHB
YjhH = test: as above; type: cell-based, Escherichia coli; settings: in presence of significant amount of DHB
rhmA = test: as above; type: cell-based, Escherichia coli; settings: in presence of significant amount of DHB
[1] = biological target: T1, Escherichia coli pyruvate aldolase Eda (E.C. 4.1.2.14) (Escherichia coli, UniProt P0A955); test: Kinetic characterization of pyruvate aldolase on OHB (coupled LdhA/NADH assay, 340 nm); type: biochemical; settings: Tris-HCl 50 mM pH 7.5, 5 mM MgCl2, 37° C., 0 to 13 mM OHB
T1 construct: coupled LdhA/NADH assay
T1 sequence (P0A955 1-213): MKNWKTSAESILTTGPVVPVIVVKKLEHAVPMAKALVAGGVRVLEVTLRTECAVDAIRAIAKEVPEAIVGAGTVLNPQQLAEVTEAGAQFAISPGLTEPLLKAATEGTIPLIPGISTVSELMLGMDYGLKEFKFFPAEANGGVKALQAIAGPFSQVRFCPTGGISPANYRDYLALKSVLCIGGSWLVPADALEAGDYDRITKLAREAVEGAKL

[2] = variant obtained by in vivo evolution (Bouzon et al., 2017); cited from earlier work
[3] = substrate: O=C(O)C(=O)CCO; test: purified protein, by the assay type; type: biochemical, Escherichia coli; settings: Tris-HCl 50 mM pH 7.5, 5 mM MgCl2, 37° C., 0 to 13 mM OHB
[4] = In vivo capacity to degrade OHB by deletion of genes encoding pyruvate aldolase; type: cell-based, Escherichia coli; settings: E. coli, gene deletion strains incubated with DHB
Description: We measured production of formate in strains that were deleted for one of these aldolase encoding gene.

## O=C(O)C(O)CCO (racemic) [DHB, 2,4-dihydroxybutyric acid]
yagE
  Maximal Expression: 13.33
  Minimal Expression: 1.82
garL
  Maximal Expression: 1.32
  Minimal Expression: 1.06
yfaU
  Maximal Expression: 1.09
  Minimal Expression: 0.9
YjhH
  Maximal Expression: 3.33
  Minimal Expression: 1.25
rhmA
  Maximal Expression: 1.14
  Minimal Expression: 0.98

## O=C(O)C(=O)CCO [OHB, 2-oxo-4-hydroxybutyrate]
[1]
  Km: > 20000 µM

B1: AlaC^A142PY275D: variant of alanine-α-ketoglutarate transaminase from E coli Ec-AlaC, obtained by in vivo evolution (Bouzon et al., 2017) (protein, UniProt P77434 1-412, looked up, variant A142P Y275D)
Glutamate-pyruvate …: MADTRPERRFTRIDRLPPYVFNITAELKMAARRRGEDIIDFSMGNPDGATPPHIVEKLCTVAQRPDTHGYSTSRGIPRLRRAISRWYQDRYDVEIDPESEAIVTIGSKEGLAHLMLATLDHGDTVLVPNPSYPIHIYGAVIPGAQVRSVPLVEGVDFFNELERAIRESYPKPKMMILGFPSNPTAQCVELEFFEKVVALAKRYDVLVVHDLAYADIVYDGWKAPSIMQVPGARDVAVEFFTLSKSYNMAGWRIGFMVGNKTLVSALARIKSYHDDGTFTPLQVAAIAALEGDQQCVRDIAEQYKRRRDVLVKGLHEAGWMVEMPKASMYVWAKIPEPYAAMGSLEFAKKLLNEAKVCVSPGIGFGDYGDTHVRFALIENRDRIRQAIRGIKAMFRADGLLPASSKHIHENAE
[2]
  higher catalytic activity on homoserine: 100 fold

B2: Escherichia coli pyruvate aldolase DgoA (E.C. 4.1.2.21) (Escherichia coli K-12) (protein)
chain: MQWQTKLPLIAILRGITPDEALAHVGAVIDAGFDAVEIPLNSPQWEQSIPAIVDAYGDKALIGAGTVLKPEQVDALARMGCQLIVTPNIHSEVIRRAVGYGMTVCPGCATATEAFTALEAGAQALKIFPSSAFGPQYIKALKAVLPSDIAVFAVGGVTPENLAQWIDAGCAGAGLGSDLYRAGQSVERTAQQAAAFVKAYREAVQ
notes: coupled LdhA/NADH assay
[3]; other: DgoA
  Km: 2800 µM
  Vmax: 0.04 µmol/min/mg
  kcat: 0.012 s⁻¹
  kcat/Km: 4.7 M⁻¹ s⁻¹

B3: GarL: E. coli pyruvate aldolase, E.C. 4.1.2.20, natural substrate 5-dehydro-4-deoxy-D-glucarate (protein, UniProt P23522 1-256, looked up)
5-keto-4-deoxy-D-glucarate …: MNNDVFPNKFKAALAAKQVQIGCWSALSNPISTEVLGLAGFDWLVLDGEHAPNDISTFIPQLMALKGSASAPVVRVPTNEPVIIKRLLDIGFYNFLIPFVETKEEAELAVASTRYPPEGIRGVSVSHRANMFGTVADYFAQSNKNITILVQIESQQGVDNVDAIAATEGVDGIFVGPSDLAAALGHLGNASHPDVQKAIQHIFNRASAHGKPSGILAPVEADARRYLEWGATFVAVGSDLGVFRSATQKLADTFKK
[4]
  function on OHB in vivo: do not have any function on OHB in vivo

B4: YfaU: E. coli pyruvate aldolase, E.C. 4.1.2.53, natural substrate 2-keto-3-deoxy-L-rhamnonate (protein, UniProt P76469 1-267, looked up)
2-keto-3-deoxy-L-rhamnonate …: MNALLSNPFKERLRKGEVQIGLWLSSTTAYMAEIAATSGYDWLLIDGEHAPNTIQDLYHQLQAVAPYASQPVIRPVEGSKPLIKQVLDIGAQTLLIPMVDTAEQARQVVSATRYPPYGERGVGASVARAARWGRIENYMAQVNDSLCLLVQVESKTALDNLDEILDVEGIDGVFIGPADLSASLGYPDNAGHPEVQRIIETSIRRIRAAGKAAGFLAVAPDMAQQCLAWGANFVAVGVDTMLYSDALDQRLAMFKSGKNGPRIKGSY
[4]
  function on OHB in vivo: do not have any function on OHB in vivo

B5: YjhH: E. coli pyruvate aldolase, E.C. 4.1.2.28, natural substrate 2-keto-3-deoxy-D-arabinonate; His-tagged recombinant protein (protein, UniProt P39359 1-301, looked up)
Probable …: MKKFSGIIPPVSSTFHRDGTLDKKAMREVADFLINKGVDGLFYLGTGGEFSQMNTAQRMALAEEAVTIVDGRVPVLIGVGSPSTDEAVKLAQHAQAYGADGIVAINPYYWKVAPRNLDDYYQQIARSVTLPVILYNFPDLTGQDLTPETVTRLALQNENIVGIKDTIDSVGHLRTMINTVKSVRPSFSVFCGYDDHLLNTMLLGGDGAITASANFAPELSVGIYRAWREGDLATAATLNKKLLQLPAIYALETPFVSLIKYSMQCVGLPVETYCLPPILEASEEAKDKVHVLLTAQGILPV
modifications: His tag
notes: E. coli pyruvate aldolase, E.C; 4.1.2.28, natural substrate 2-keto-3-deoxy-D-arabinonate; His-tagged recombinant protein
[4]
  function on OHB in vivo: most efficient to degrade OHB in vivo

B6: Escherichia coli pyruvate aldolase YagE (E.C. 4.1.2.28) (Escherichia coli K-12) (protein)
chain: MPQSALFTGIIPPVSTIFTADGQLDKPGTAALIDDLIKAGVDGLFFLGSGGEFSQLGAEERKAIARFAIDHVDRRVPVLIGTGGTNARETIELSQHAQQAGADGIVVINPYYWKVSEANLIRYFEQVADSVTLPVMLYNFPALTGQDLTPALVKTLADSRSNIIGIKDTIDSVAHLRSMIHTVKGAHPHFTVLCGYDDHLFNTLLLGGDGAISASGNFAPQVSVNLLKAWRDGDVAKAAGYHQTLLQIPQMYQLDTPFVNVIKEAIVLCGRPVSTHVLPPASPLDEPRKAQLKTLLQQLKLC
notes: coupled LdhA/NADH assay
[3]; other: YagE
  Km: 350 µM
  Vmax: 0.63 µmol/min/mg
  kcat: 0.04 s⁻¹
  kcat/Km: 115 M⁻¹ s⁻¹

B7: YagE: E. coli pyruvate aldolase, E.C. 4.1.2.28, natural substrate 2-keto-3-deoxy-D-arabinonate; His-tagged recombinant protein (protein, UniProt P75682 1-302, looked up)
Putative …: B6 chain
modifications: His tag
notes: as for B5
[4]
  function on OHB in vivo: most efficient to degrade OHB in vivo
